{"source": "patent US20070212390A1", "binders": {"B1": {"name": "VEGF-D ΔN.IISS (human VEGF-D with R204,205S point mutations and lacking the N-terminal propeptide), O43915 87-354 (ligand)", "chain": "ARQDYKDDDDKTRFAATFYDIETLKVIDEEWQRTQCSPRETCVEVASELGKSTNTFFKPPCVNVFRCGGCCNEESLICMNTSTSYISKQLFEISVPLTSVPELVPVKVANHTGCKCLPTAPRHPYSIISSSIQIPEEDRCSHSKKLCPIDMLWDSNKCKCVLQEENPLAGTEDHSHLQEPALCGPHMMFDEDRCECVCKTPCPKDLIQHPKNCSCFECKESLETCCQKHKLFHPDTCSCEDRCPFHTRPCASGKTACAKHCRFPKEKRAAQGPHSRKNP"}}, "key": {"[1]": {"molecular_target": "chimeric receptor consisting of the extracellular domain of human VEGFR-3 and the cytoplasmic domain of the erythropoietin receptor, on Ba/F3 cells (human), P35916", "sequence (P35916 25-775 limits assumed, change not shown, form in doubt)": "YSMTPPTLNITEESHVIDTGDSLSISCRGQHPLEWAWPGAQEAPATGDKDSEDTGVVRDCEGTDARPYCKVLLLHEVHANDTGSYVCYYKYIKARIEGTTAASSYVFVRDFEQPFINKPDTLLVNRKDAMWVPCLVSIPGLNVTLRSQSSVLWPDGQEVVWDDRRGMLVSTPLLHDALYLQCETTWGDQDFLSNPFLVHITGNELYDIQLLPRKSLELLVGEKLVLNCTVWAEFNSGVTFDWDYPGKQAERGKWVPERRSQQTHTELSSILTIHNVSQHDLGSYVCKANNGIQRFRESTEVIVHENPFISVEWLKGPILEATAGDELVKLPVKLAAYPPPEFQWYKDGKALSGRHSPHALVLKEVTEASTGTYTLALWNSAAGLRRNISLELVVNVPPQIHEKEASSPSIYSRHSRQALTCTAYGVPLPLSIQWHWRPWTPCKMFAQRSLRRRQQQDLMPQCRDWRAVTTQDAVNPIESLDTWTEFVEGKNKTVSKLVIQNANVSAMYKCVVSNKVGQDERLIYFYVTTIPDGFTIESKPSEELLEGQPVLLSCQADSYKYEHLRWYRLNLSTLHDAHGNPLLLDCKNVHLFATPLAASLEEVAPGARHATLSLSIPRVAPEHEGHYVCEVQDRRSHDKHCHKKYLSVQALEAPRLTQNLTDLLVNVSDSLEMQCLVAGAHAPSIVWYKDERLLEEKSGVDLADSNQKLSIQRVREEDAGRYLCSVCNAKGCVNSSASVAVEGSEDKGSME", "assay": "cell-based or functional assay"}, "[2]": {"molecular_target": "chimeric receptor consisting of the extracellular domain of mouse VEGFR-2 and the cytoplasmic domain of the erythropoietin receptor, on Ba/F3 cells (mouse), P35918", "sequence (P35918 20-762 limits assumed, change not shown, form in doubt)": "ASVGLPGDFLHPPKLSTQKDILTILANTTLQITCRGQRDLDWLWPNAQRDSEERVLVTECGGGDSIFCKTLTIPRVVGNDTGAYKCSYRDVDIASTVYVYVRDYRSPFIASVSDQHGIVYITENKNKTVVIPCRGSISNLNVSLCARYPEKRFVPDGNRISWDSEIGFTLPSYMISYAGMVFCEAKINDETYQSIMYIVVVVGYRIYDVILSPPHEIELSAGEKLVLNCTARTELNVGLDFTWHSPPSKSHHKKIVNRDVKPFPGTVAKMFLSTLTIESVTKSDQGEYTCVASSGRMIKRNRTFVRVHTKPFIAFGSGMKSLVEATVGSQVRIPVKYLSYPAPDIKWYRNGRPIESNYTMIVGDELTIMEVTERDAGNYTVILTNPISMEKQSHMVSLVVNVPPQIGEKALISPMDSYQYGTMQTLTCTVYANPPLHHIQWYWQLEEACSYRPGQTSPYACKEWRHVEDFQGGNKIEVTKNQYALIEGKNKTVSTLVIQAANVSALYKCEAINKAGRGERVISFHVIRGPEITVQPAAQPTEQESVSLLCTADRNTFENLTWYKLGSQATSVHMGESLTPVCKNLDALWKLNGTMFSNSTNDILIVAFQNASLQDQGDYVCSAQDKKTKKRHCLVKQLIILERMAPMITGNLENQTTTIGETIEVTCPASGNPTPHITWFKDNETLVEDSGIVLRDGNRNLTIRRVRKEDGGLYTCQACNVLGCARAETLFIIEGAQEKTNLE", "assay": "cell-based or functional assay"}}, "data": [{"binder": "B1", "values": [{"measurement": "activity in VEGFR-3 bioassay (Ba/F3 cell survival and proliferation, tritiated-thymidine incorporation)", "setting": "[1]", "result": 70, "unit": "fold"}, {"measurement": "activity in VEGFR-2 bioassay (Ba/F3 cell survival and proliferation, tritiated-thymidine incorporation)", "setting": "[2]", "result": 70, "unit": "fold"}]}]}
